Results reported in PMC2923778 (Journal of Molecular Biology, 2010).

T1: mSPSB2(12–224) (murine, UniProt O88838 12-224)
T1 construct: murine SPSB2 (SSB-2), residues 12-224: lacks the first 11 residues and the C-terminal SOCS box; Uniformly 15N-labelled in one NMR experiment; also called mSPSB2ΔSB; 15N-mSPSB2(12–224); source: E. coli Origami B(DE3) pLysS, GST fusion, purified (glutathione-Sepharose, thrombin cleavage, gel filtration)
T1 sequence (looked up): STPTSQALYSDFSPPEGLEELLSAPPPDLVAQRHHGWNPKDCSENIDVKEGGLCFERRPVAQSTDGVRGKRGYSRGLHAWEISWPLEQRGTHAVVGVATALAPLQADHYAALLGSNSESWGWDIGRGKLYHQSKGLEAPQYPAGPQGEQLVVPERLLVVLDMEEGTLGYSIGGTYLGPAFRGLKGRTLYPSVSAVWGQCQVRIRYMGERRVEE

T2: hSPSB1(24–233) (human, UniProt Q96BD6 24-233)
T2 construct: human SPSB1 lacking the SOCS box region, residues 24-233; also called human SPSB1 SPRY domain; source: E. coli BL21(DE3)-R3-pRARE2, purified (Ni-Sepharose, TEV cleavage, size-exclusion, anion exchange); not shown: His6, N-terminal, cleaved
T2 sequence (looked up): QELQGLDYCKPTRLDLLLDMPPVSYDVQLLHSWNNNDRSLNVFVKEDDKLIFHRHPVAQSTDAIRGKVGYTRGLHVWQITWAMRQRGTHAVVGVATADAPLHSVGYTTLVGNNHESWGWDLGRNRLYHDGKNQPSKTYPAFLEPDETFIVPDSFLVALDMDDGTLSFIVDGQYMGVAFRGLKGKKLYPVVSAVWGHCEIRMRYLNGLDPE

T3: hSPSB2(26–219) (human, UniProt Q99619 26-219)
T3 construct: human SPSB2 lacking the SOCS box region, residues 26-219; also called human SPSB2 SPRY domain; source: E. coli BL21(DE3)-R3-pRARE2, purified (Ni-Sepharose, size-exclusion); not shown: His6, N-terminal, kept
T3 sequence (looked up): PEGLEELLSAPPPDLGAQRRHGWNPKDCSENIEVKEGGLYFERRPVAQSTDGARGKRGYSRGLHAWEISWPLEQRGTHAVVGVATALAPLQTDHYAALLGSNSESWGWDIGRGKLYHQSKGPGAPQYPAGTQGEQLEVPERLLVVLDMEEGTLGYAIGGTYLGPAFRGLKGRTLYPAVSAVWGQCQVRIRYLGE

T4: Par-4 (Homo sapiens, UniProt Q96IZ0)
T4 chain: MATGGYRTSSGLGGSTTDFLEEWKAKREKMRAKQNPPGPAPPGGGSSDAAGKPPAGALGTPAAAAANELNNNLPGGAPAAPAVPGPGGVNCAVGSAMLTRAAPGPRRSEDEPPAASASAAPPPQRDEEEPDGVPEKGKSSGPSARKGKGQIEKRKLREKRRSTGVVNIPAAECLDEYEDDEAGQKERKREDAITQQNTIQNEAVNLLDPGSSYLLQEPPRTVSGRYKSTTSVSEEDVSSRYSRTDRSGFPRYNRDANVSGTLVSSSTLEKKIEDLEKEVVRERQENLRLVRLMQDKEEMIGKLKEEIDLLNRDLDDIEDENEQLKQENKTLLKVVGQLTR


Experiments:
mSPSB1ΔSB (murine) = test: ITC; 100 μM peptide titrated into 10 μM mSPSB protein; 22 °C; 20 mM Tris, 150 mM sodium chloride, 2.5 mM calcium chloride, pH 8.0; single binding site model
mSPSB4ΔSB (murine) = test: as above
mSPSB2(12–224) [1] = molecular target: T1, mSPSB2(12–224); test: as above; conditions: both partners purified
mSPSB2(12–224) [2] = molecular target: T1, mSPSB2(12–224); test: as above; conditions: both partners purified; remark: listed apart in the source
hSPSB1(24–233) = molecular target: T2, hSPSB1(24–233); test: ITC; 100 μM peptide titrated into 10 μM hSPSB protein; 20 °C; 50 mM Hepes pH 7.4, 150 mM NaCl, 1 mM DTT (hSPSB1) or 0.5 mM TCEP (hSPSB2, hSPSB4); single binding site model; conditions: both partners purified
hSPSB2(26–219) = molecular target: T3, hSPSB2(26–219); test: as above; conditions: both partners purified
Par-4 = molecular target: T4, Par-4; test: ITC

Row | Kd (mSPSB1ΔSB (murine)) [nM] | Kd (mSPSB4ΔSB (murine)) [nM] | Kd (mSPSB2(12–224) [1]) [nM] | Binder | other results
1 | 210 | 213 | 3200 | AAANELNNNLPGGA (human prostate apoptosis response protein-4 (hPar-4), residues 64-77; also called shorter wild-type hPar-4 peptide; source: synthetic peptide (GenScript Corporation)) [hPar-4(64–77)] | Kd (mSPSB2(12–224) [2]): 3100 nM
2 | > 50000 | > 50000 |  | AAANELNANLPGGA (human prostate apoptosis response protein-4 (hPar-4), residues 64-77, N71A; source: synthetic peptide (GenScript Corporation)) [[N71A]hPar-4(64–77)] | 
3 | > 50000 | > 50000 |  | AAANELANNLPGGA (human prostate apoptosis response protein-4 (hPar-4), residues 64-77, N70A; source: synthetic peptide (GenScript Corporation)) [[N70A]hPar-4(64–77)] | 
4 |  | 47 | 208 | AAANDLNNNLPGGA (human prostate apoptosis response protein-4 (hPar-4), residues 64-77, E68D) [[E68D]hPar-4(64–77)] | 
5 |  | 55 | 1600 | AAANEINNNLPGGA (human prostate apoptosis response protein-4 (hPar-4), residues 64-77, L69I) [[L69I]hPar-4(64–77)] | 
6 | 40 | 33 | 106 | AAANDINNNLPGGA (human prostate apoptosis response protein-4 (hPar-4), residues 64-77, E68D and L69I (DINNN motif as in VASA); also called double mutant; source: synthetic peptide (GenScript Corporation)) [[E68D,L69I]hPar-4(64–77)] | 
7 |  | 255 | 4000 | GTPAAAADNELNNNLPGGA (human prostate apoptosis response protein-4 (hPar-4), residues 59-77, A66D; source: synthetic peptide (GL Biochem)) [[A66D]hPar-4(59–77)] | 
8 |  |  |  | NELNNNLPGGAPAAP (human prostate apoptosis response protein-4 (hPar-4), residues 67-81; source: synthetic peptide (ThermoElectron GmbH)) [hPar-4(67–81)] | Kd (hSPSB1(24–233)): 150 nM; dH (hSPSB1(24–233)): -13.2 ± 0.1 kcal/mol; stoichiometry N (hSPSB1(24–233)): 0.94; Kd (hSPSB2(26–219)): 1520 nM; dH (hSPSB2(26–219)): -16.2 ± 0.1 kcal/mol; stoichiometry N (hSPSB2(26–219)): 1.18
9 |  |  |  | SPSB2 (protein) MGQTALAGGSSSTPTPQALYPDLSCPEGLEELLSAPPPDLGAQRRHGWNPKDCSENIEVKEGGLYFERRPVAQSTDGARGKRGYSRGLHAWEISWPLEQRGTHAVVGVATALAPLQTDHYAALLGSNSESWGWDIGRGKLYHQSKGPGAPQYPAGTQGEQLEVPERLLVVLDMEEGTLGYAIGGTYLGPAFRGLKGRTLYPAVSAVWGQCQVRIRYLGERRAEPHSLLHLSRLCVRHNLGDTRLGQVSALPLPPAMKRYLLYQ | Kd (Par-4): 1500 nM
10 |  |  |  | DINNNNNIVEDVERKREFYI (DEAD-box RNA helicase VASA of Drosophila, residues 184-203; also called VASA-derived peptide; source: synthetic peptide (ThermoElectron GmbH)) [VASA(184–203)] | dH (hSPSB1(24–233)): -20.5 ± 0.2 kcal/mol; stoichiometry N (hSPSB1(24–233)): 0.96; Kd (hSPSB2(26–219)): 147 nM; dH (hSPSB2(26–219)): -23.9 ± 0.1 kcal/mol; stoichiometry N (hSPSB2(26–219)): 0.96
